Measured values published in patent publication US20190225705A1 (Bayer, published 2019).
Positions count from the first letter of the chain named.

Assays:
[1] = biological target: T1, human coagulation factor XI (human, UniProt P03951 19-625); experiment: ELISA on coated human FXI
T1 construct: Bought protein; also called FXI; fXI
Description: (§1) A standard ELISA format was used for analyzing the binding affinity of antibodies of this invention to FXI. Human FXI was obtained from Haematologic Technologies Inc. (human FXI; Cat. No. HCXI-0150), baboon FXI was generated as described below. These antigens were coated to black 384 well Maxisorp microtitter plates (Nunc; Cat. No: 460518), diluted to a concentration of 1 μg/ml in 1× Coating Buffer (Candor Bioscience; Cat. No. 121125). Plates were incubated overnight at 4° C. After ovemight incubation, plates were washed 2× with 50 μl/well using Phosphate Buffered Saline (PBS, SigmaAldrich, Cat. No. D8662)+0.05% Tween 20 (SigmaAldrich, Cat. No. P9416). Following this, 50 μl/well of blocking buffer (Smart Block; Candor Bioscience; Cat. No. 113500) was added and the plates incubated for 1 hour at room temperature. Afterwards, plates were washed for 3× using 50 μl/well of a PBS+0.05% Tween 20 buffer. Antibodies of this invention were added at different concentrations in a final volume of 30 μl/well. Plates were incubated for 1 hour at room temperature. Following this incubation step, plates were washed for 3× using 50 μl/well of a PBS+0.05% Tween 20 buffer. For the detection of bound candidate antibodies, the anti-h-Fc-POD antibody (Sigma; Cat. No. A0170) was diluted by the factor of 1:10000 in 10% Blocking Buffer. […]

[2] = biological target: T1, human coagulation factor XI; experiment: competitive ELISA on coated FXI, competitor biotinylated 1A6
[3] = biological target: T1, human coagulation factor XI; experiment: ELISA on coated human FXI, anti-h-Fc-POD detection
Description: as §1

B1: humanized and germlined anti-FXI antibody TPP-3290 (antibody, human IgG1, kappa, V domains shown)
VH: EVTLRESGPALVKPTQTLTLTCTFSGFSLSTSGMGVSWIRQPPGKALEWLAHIDWDDDKYYSTSLKSRLTISKDTSKNQVVLTMTNMDPVDTATYYCARIRSSVYAHYYGMDYWGQGTTVTVSS
VL: DIVMTQSPDSLAVSLGERATISCKASQSVLYSGDNYLNWYQQKPGQPPKLLIYAASTLESGIPDRFSGSGSGTDFTLTISSLQAEDVAVYYCQQYNGTPWTFGGGTKVEIKR
notes: IgG expressed in HEK293-6E cells; also called TTP3290
Does B1 bind [1]?
Result: binds

B2: humanized and germlined anti-FXI antibody TPP-3583 (antibody, human IgG1, kappa, V domains shown)
VH: B1 VH with S37G, T63P
VL: B1 VL with T98D
notes: also called TTP-3583
Does B2 bind [2]?
Result: binds

B3: humanized and germlined anti-FXI antibody TPP-3238 (antibody, human IgG1, kappa, V domains shown)
VH: B1 VH with A106Y, H107Y, Y113V
VL: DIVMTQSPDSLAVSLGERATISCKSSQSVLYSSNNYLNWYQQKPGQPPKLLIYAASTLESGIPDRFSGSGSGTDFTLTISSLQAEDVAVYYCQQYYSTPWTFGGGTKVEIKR
notes: IgG expressed in HEK293-6E cells
Does B3 bind [3]?
Result: binds
